# Reference: patent US20120058906A1 (published 2012)
# Changes are numbered by the printed parent chain.
# T1: rHuman Erythropoietin R/Fc Chimera, CF (R&D Systems Cat#963-ER) (human, UniProt P19235 25-250)
# T1 construct: also called EPO R/Fc; Epo R; Fc part of the bought chimera not given
# T1 sequence: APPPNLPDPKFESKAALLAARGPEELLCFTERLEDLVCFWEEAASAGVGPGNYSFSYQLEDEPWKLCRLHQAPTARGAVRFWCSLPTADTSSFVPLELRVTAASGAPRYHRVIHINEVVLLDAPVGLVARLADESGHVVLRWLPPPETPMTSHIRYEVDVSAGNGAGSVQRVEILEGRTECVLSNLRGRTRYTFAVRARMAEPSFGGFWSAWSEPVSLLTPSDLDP
# T2: rHuman Erythropoietin R/Fc Chimera, CF (R&D Systems Cat#963-ER) (human, UniProt P19235 25-250)
# T2 construct: Purchased Fc chimera; also called EPO R/Fc; Epo R; not shown: Fc portion of the purchased chimera
# T2 sequence: T1 sequence
# T3: rHuman Erythropoietin R/Fc Chimera, CF (R&D Systems Cat#963-ER) (human, UniProt P19235 25-250)
# T3 construct: Bought Fc chimera; also called EPO R/Fc; Epo R; Fc part of the bought chimera not given
# T3 sequence: T1 sequence
# B1: Fab VH1-8_IGHD2-2*01_IGHJ6*01 & L12_IGKJ1*01 (Fab, V domains shown)
# VH: QVQLVQSGAEVKKPGASVKVSCKASGYTFTSYDINWVRQATGQGLEWMGWMNPNSGNTGYAQKFQGRVTMTRNTSISTAYMELSSLRSEDTAVYYCARGGYCSSTSCYADYYYYYGMDVWGQGTTVTVSS
# VL: not shown
# B2: Fab VH5-51_IGHD5-18*01>3_IGHJ4*01_G100K & V3-4_IGLJ1*01 (Fab, V domains shown)
# VH: EVQLVQSGAEVKKPGESLKISCKGSGYSFTSYWIGWVRQMPGKGLEWMGIIYPGDSDTRYSPSFQGQVTISADKSISTAYLQWSSLKASDTAMYYCARRKYSYGYDYFDYWGQGTLVTVSS
# VL: QTVVTQEPSFSVSPGGTVTLTCGLSSGSVSTSYYPSWYQQTPGQAPRTLIYSTNTRSSGVPDRFSGSILGNKAALTITGAQADDESDYYCVLYMGSGISYVFGTGTKVTVL
# notes: It was expressed as a Fab: CH1 with tags from Plasmid A and lambda CL from Plasmid E; also called Fab No. 22
# B3: Fab VH5-51_IGHD5-18*01>3_IGHJ4*01_G100R & V3-4_IGLJ1*01 (Fab, V domains shown)
# VH: B2 VH with K100R
# VL: B2 VL
# notes: It was expressed as a Fab: CH1 with tags from Plasmid A and lambda CL from Plasmid E; also called Fab No. 23
# B4: Fab VH6-1_IGHD3-3*01_IGHJ4*01 & V4-3_IGLJ4*01 (Fab, V domains shown)
# VH: QVQLQQSGPGLVKPSQTLSLTCAISGDSVSSNSAAWNWIRQSPSRGLEWLGRTYYRSKWYNDYAVSVKSRITINPDTSKNQFSLQLNSVTPEDTAVYYCAREYYDFWSGYYTDYFDYWGQGTLVTVSS
# VL: QPVLTQPTSLSASPGASARLTCTLRSGINLGSYRIFWYQQKPESPPRYLLSYYSDSSKHQGSGVPSRFSGSKDASSNAGILVISGLQSEDEADYYCMIWHSSASFVFGGGTQLIIL
# notes: Tested as a Fab made in E. coli; also called IGHV6-1*01
# Legend:
# [1] = molecular target: T4, rHuman HGF R/c-MET/Fc Chimera, CF (R&D Systems Cat#358-MT/CF) (human, UniProt P08581 25-932); assay: MSD ECL multi-spot plate; Fab 130 nM; blank spot 1153
# T4 construct: also called HGF R/Fc; hepatocyte growth factor receptor; Fc part of the bought chimera not given
# [2] = molecular target: T1, rHuman Erythropoietin R/Fc Chimera, CF …; assay: as above
# [3] = molecular target: T5, rHuman HGF R/c-MET/Fc Chimera, CF (R&D Systems Cat#358-MT/CF) (human, UniProt P08581 25-932); assay: MSD ECL multi-spot plate, antigen immobilized; Fab 1000 nM; blank spot 630
# T5 construct: Purchased Fc chimera; also called HGF R/Fc; not shown: Fc portion of the purchased chimera
# [4] = molecular target: T2, rHuman Erythropoietin R/Fc Chimera, CF …; assay: as above
# [5] = molecular target: T6, rHuman ErbB2/Fc Chimera, CF (R&D Systems Cat#1129-ER) (human, UniProt P04626 23-652); assay: as above
# T6 construct: Purchased Fc chimera; also called HER2/neu; not shown: Fc portion of the purchased chimera
# [6] = molecular target: T5, rHuman HGF R/c-MET/Fc Chimera, CF (R&D …); assay: MSD ECL multi-spot plate, antigen immobilized; Fab 8 nM; blank spot 479
# [7] = molecular target: T2, rHuman Erythropoietin R/Fc Chimera, CF …; assay: as above
# [8] = molecular target: T7, rHuman P-Cadherin/Fc Chimera, CF (R&D Systems Cat#861-PC) (human, UniProt P22223 108-654); assay: as above
# T7 construct: Purchased Fc chimera; not shown: Fc portion of the purchased chimera
# [9] = molecular target: T8, rHuman IGF-1 sR (IGF-1 sR), CF (R&D Systems Cat#391-GR) (human, UniProt P08069 31-932); assay: as above
# T8 construct: Purchased soluble receptor; also called insulin-like growth factor-1 soluble receptor; IGF-R1
# [10] = molecular target: T6, rHuman ErbB2/Fc Chimera, CF (R&D …); assay: as above
# [11] = molecular target: T9, rHuman CD44/Fc Chimera, CF (R&D Systems Cat#3660-CD) (human, UniProt P16070 21-220); assay: as above
# T9 construct: Purchased Fc chimera; not shown: Fc portion of the purchased chimera
# [12] = molecular target: T10, Recombinant Human DLL4 (R&D Systems Cat#1506-D4/CF) (human, UniProt Q9NR61 27-524); assay: as above
# T10 construct: Purchased recombinant protein; also called delta-like protein 4
# [13] = molecular target: T11, rHuman Notch-1/Fc Chimera, CF (R&D Systems Cat#3647-TK) (human, UniProt P46531 19-526); assay: as above
# T11 construct: Purchased Fc chimera; not shown: Fc portion of the purchased chimera
# [14] = molecular target: T12, rHuman EGF R/Fc Chimera, CF (R&D Systems Cat#344-ER) (human, UniProt P00533 25-645); assay: as above
# T12 construct: Purchased Fc chimera; not shown: Fc portion of the purchased chimera
# [15] = molecular target: T13, rHuman Notch-1/Fc Chimera, CF (R&D Systems Cat#3647-TK) (human, UniProt P46531 19-526); assay: ECL (MSD Multi-Spot) binding assay, antigen spotted on plate; Fab 3.8 nM; blank spot 198
# T13 construct: Bought Fc chimera; Fc part of the bought chimera not given
# [16] = molecular target: T14, rHuman P-Cadherin/Fc Chimera, CF (R&D Systems Cat#861-PC) (human, UniProt P22223 108-654); assay: as above
# T14 construct: Bought Fc chimera; also called CDH3; Fc part of the bought chimera not given
# [17] = molecular target: T3, rHuman Erythropoietin R/Fc Chimera, CF …; assay: as above
# [18] = molecular target: T15, Recombinant Human DLL4 (R&D Systems Cat#1506-D4/CF) (human, UniProt Q9NR61 27-524); assay: as above
# T15 construct: Bought recombinant protein; also called delta-like protein 4; rHuman DLL4
# [19] = molecular target: T16, rHuman CD44/Fc Chimera, CF (R&D Systems Cat#3660-CD) (human, UniProt P16070 21-220); assay: as above
# T16 construct: Bought Fc chimera; Fc part of the bought chimera not given
# 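Note: blank spot per well as comparator with Hit at signal to blank ratio of 4 or more.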
binder,measurement,setting,value
B1,ECL signal,[1],1880 ECL signal
same,ECL signal,[2],2150 ECL signal
B2,ECL signal,[3],1200 ECL signal
same,ECL signal,[4],1120 ECL signal
same,ECL signal,[5],1250 ECL signal
B3,ECL signal,[6],1240 ECL signal
same,ECL signal,[7],911 ECL signal
same,ECL signal,[8],669 ECL signal
same,ECL signal,[9],1110 ECL signal
same,ECL signal,[10],1330 ECL signal
same,ECL signal,[11],786 ECL signal
same,ECL signal,[12],5470 ECL signal
same,ECL signal,[13],916 ECL signal
same,ECL signal,[14],1080 ECL signal
B4,ECL signal,[15],383
same,ECL signal,[16],281
same,ECL signal,[17],407
same,ECL signal,[18],462
same,ECL signal,[19],419
